The record followed here is the RNAGym collection of RNA variant scans (doi:10.7554/elife.80360).

B1: CPEB3 Ribozyme (parent)
chain: GGGGGCCACAGCAGAAGCGUUCACGUCGCGGCCCCUGUCAGAUUCUGGUGAAUCUGCGAAUUCUGCUGU

Variants of B1 are the subject of the series. The experiment in a line: self-cleavage, relative activity (ratio to wild type); higher = more cleavage; co-transcriptional.
In the case of C12A U26A, the self-cleavage amounted to 0.374.

On to C12G A16C, for which the self-cleavage was found to be 0.177.

Take C12G A16U: the self-cleavage came to 0.486.

C12U C33A: the self-cleavage came to 0.924.

For C12U C33G, the self-cleavage came out at 0.656.

In the case of C12A U21G, the self-cleavage was 0.0774.

For A13C U69A, the self-cleavage is 0.915.

A13C U69C: the self-cleavage stood at 1.06.

On to C12G U44A, for which the self-cleavage was 0.727.

On to C12U C27G, for which the self-cleavage turned out to be 0.174.

For A13U G14C, the self-cleavage came out at 0.351.

On to A13C G68U, for which the self-cleavage is 0.892.

For the variant A13C G65U, the self-cleavage came out at 0.41.

Turning to A13G C27G, the self-cleavage came to 0.137.

For A13G C27A, the self-cleavage was 0.425.

C12U C54U: the self-cleavage was 0.968.

Take C12A C35G: the self-cleavage worked out at 0.189.

As to C12U G48A, the self-cleavage is 0.963.

As to C12U G48C, the self-cleavage was determined as 0.972.

Turning to A13G U20C, the self-cleavage came out at 0.199.

With A13G U20A, the self-cleavage is 0.0779.

As to C12A C54U, the self-cleavage was 0.688.

In the case of C12G G30U, the self-cleavage came out at 0.26.

Consider C12G G30A, for which the self-cleavage is 0.43.

Regarding C12G G17U, the self-cleavage amounted to 0.165.

For A13G U49G, the self-cleavage came to 0.989.

As to A13G U49C, the self-cleavage came out at 1.01.

On to A13U G47C, for which the self-cleavage amounted to 0.877.

In the case of A13G G48C, the self-cleavage was determined as 0.971.

C12G A59U: the self-cleavage is 0.4.

With A13C C32U, the self-cleavage was 0.89.

As for A13C C32G, the self-cleavage was 0.192.

Regarding A13C U38C, the self-cleavage was found to be 0.668.

With A13C U38A, the self-cleavage was found to be 0.679.

As to A13C U38G, the self-cleavage was determined as 0.0833.

As to A13U A60C, the self-cleavage worked out at 0.318.

As to C12A C66U, the self-cleavage worked out at 0.723.

Regarding C12A C27G, the self-cleavage is 0.171.

For the variant C12G U36C, the self-cleavage was 0.669.

Consider C12A G14A, for which the self-cleavage was found to be 0.148.

In the case of C12A G14U, the self-cleavage stood at 0.13.

With A13U U43G, the self-cleavage amounted to 0.221.

For C12A C18A, the self-cleavage was 0.139.

In the case of A13C A42C, the self-cleavage was found to be 0.602.

As to C12A U55C, the self-cleavage turned out to be 0.366.

In the case of A13G G17C, the self-cleavage came out at 0.052.

In the case of C12U U36C, the self-cleavage amounted to 0.892.

Turning to A13U G17C, the self-cleavage was found to be 0.116.

For C12A U69G, the self-cleavage was 0.925.

A13G U67G: the self-cleavage was 0.897.

On to A13C A52G, for which the self-cleavage is 0.823.

Regarding A13C A60U, the self-cleavage turned out to be 0.276.

For the variant A13G A16C, the self-cleavage turned out to be 0.175.

On to A13G A16U, for which the self-cleavage stood at 0.714.

Turning to A13G A16G, the self-cleavage came out at 0.855.

As for A13C G31C, the self-cleavage was found to be 0.131.

For C12G C54G, the self-cleavage turned out to be 0.518.

For C12G C34G, the self-cleavage worked out at 0.69.

On to A13U G56U, for which the self-cleavage is 0.348.

As to A13C C34U, the self-cleavage was found to be 0.929.

With A13C C34A, the self-cleavage was determined as 0.511.

For C12G C24A, the self-cleavage worked out at 0.374.

Turning to C12G C24U, the self-cleavage was 0.435.

As to C12G C24G, the self-cleavage worked out at 0.199.

As to A13U C45U, the self-cleavage was determined as 0.904.

Turning to C12G G41C, the self-cleavage was 0.416.

Consider C12G G41U, for which the self-cleavage amounted to 0.377.

Turning to C12A U62C, the self-cleavage is 0.338.

In the case of C12G A51U, the self-cleavage amounted to 0.854.

For A13U C39U, the self-cleavage was found to be 0.422.

Turning to A13U G37A, the self-cleavage stood at 0.184.

Take C12U U53C: the self-cleavage came to 0.785.

On to A13G G30U, for which the self-cleavage was determined as 0.241.

As for C12G U43G, the self-cleavage is 0.361.

With A13C A23C, the self-cleavage came out at 0.83.

Take A13C C27G: the self-cleavage amounted to 0.048.

Take C12A G28A: the self-cleavage was 0.13.

A13C G41A: the self-cleavage came to 0.27.

On to A13G C33U, for which the self-cleavage is 0.946.

For A13G C33A, the self-cleavage was found to be 0.942.

Regarding A13G G68U, the self-cleavage turned out to be 0.95.

Take A13G G68C: the self-cleavage was determined as 0.924.

As to C12G G37U, the self-cleavage was 0.223.

As for C12G G37C, the self-cleavage was found to be 0.205.

Turning to C12G G58C, the self-cleavage came to 0.834.

For the variant A13G G41U, the self-cleavage amounted to 0.583.

As to A13G G41C, the self-cleavage amounted to 0.547.

With A13G G19C, the self-cleavage turned out to be 0.13.

For the variant A13G G47C, the self-cleavage was found to be 0.997.

Consider A13G A42C, for which the self-cleavage was 0.647.

For the variant A13G A42G, the self-cleavage is 0.855.

In the case of C12A A51U, the self-cleavage was 0.628.

As for C12A A51C, the self-cleavage turned out to be 0.544.

With C12G A13G, the self-cleavage was found to be 0.48.

On to C12U U55A, for which the self-cleavage was 0.756.

Regarding A13C C35A, the self-cleavage came to 0.281.

Consider A13U C18A, for which the self-cleavage turned out to be 0.132.

For A13U G48A, the self-cleavage was 0.911.

In the case of A13G A15U, the self-cleavage came to 0.547.

With A13C U61G, the self-cleavage came to 0.406.

For A13C U61A, the self-cleavage was 0.459.

In the case of A13U U36C, the self-cleavage was 0.647.

For the variant C12G C22G, the self-cleavage was 0.208.

As to C12G C22A, the self-cleavage was 0.164.

Take A13G C22U: the self-cleavage turned out to be 0.207.

A13G C22A: the self-cleavage is 0.106.

For the variant C12G U21C, the self-cleavage was found to be 0.308.

For the variant C12A G37A, the self-cleavage is 0.187.

With C12A G37U, the self-cleavage was determined as 0.18.

Regarding C12A G37C, the self-cleavage is 0.149.

As for C12U U20G, the self-cleavage was determined as 0.17.

Regarding C12G U38C, the self-cleavage came to 0.745.

For A13U C66G, the self-cleavage worked out at 0.413.

As to A13U G31A, the self-cleavage amounted to 0.623.

For the variant A13G C39A, the self-cleavage was 0.602.

For the variant A13G C54U, the self-cleavage was 0.937.

For the variant A13G C57A, the self-cleavage was 0.448.

For the variant C12U C45G, the self-cleavage is 0.98.

For C12U C45U, the self-cleavage is 1.01.

Turning to C12U U62C, the self-cleavage is 0.511.

As for C12G C35G, the self-cleavage was 0.369.

On to C12G C35A, for which the self-cleavage amounted to 0.326.

With A13C A51U, the self-cleavage stood at 0.744.

Take A13C A51C: the self-cleavage is 0.827.

For the variant C12A G31C, the self-cleavage came to 0.219.

Turning to C12A G31A, the self-cleavage stood at 0.419.

For the variant C12A G31U, the self-cleavage came to 0.258.

In the case of C12U A51C, the self-cleavage was found to be 0.977.

Turning to A13U G25C, the self-cleavage amounted to 0.0789.

For A13U G25U, the self-cleavage worked out at 0.108.

For C12G C39A, the self-cleavage was determined as 0.484.

With A13C C33G, the self-cleavage turned out to be 0.231.

Regarding A13C C33U, the self-cleavage was 0.774.

As to C12G U69C, the self-cleavage turned out to be 1.06.

Take A13U C34U: the self-cleavage came out at 0.917.

A13G C24G: the self-cleavage turned out to be 0.368.

For the variant C12G C63U, the self-cleavage came out at 0.53.

Regarding A13C G47A, the self-cleavage worked out at 0.922.

On to C12A U36A, for which the self-cleavage worked out at 0.194.

On to C12A U36G, for which the self-cleavage was 0.154.

C12G G25C: the self-cleavage was 0.166.

Turning to A13C G48A, the self-cleavage was found to be 0.957.

In the case of A13C G48U, the self-cleavage stood at 0.934.

On to A13C G48C, for which the self-cleavage was 0.917.

As to C12G U64C, the self-cleavage turned out to be 0.566.

In the case of C12G U64G, the self-cleavage was found to be 0.395.

A13C U67A: the self-cleavage was determined as 0.783.

A13C U67C: the self-cleavage was 0.706.

C12G G28U: the self-cleavage came out at 0.11.

Regarding C12U A40U, the self-cleavage is 0.643.

For C12U G50U, the self-cleavage worked out at 0.953.

Consider C12U C63U, for which the self-cleavage came out at 0.898.

Consider C12U C63A, for which the self-cleavage turned out to be 0.56.

As for C12U U44G, the self-cleavage came to 0.866.

Turning to C12U U44A, the self-cleavage was 0.954.

Turning to C12U U61C, the self-cleavage amounted to 0.579.

As for C12U U61G, the self-cleavage came to 0.644.

Regarding A13C C22A, the self-cleavage stood at 0.0721.

Consider A13C C22G, for which the self-cleavage was found to be 0.149.

On to C12U C39A, for which the self-cleavage was 0.756.

Take A13C U43C: the self-cleavage worked out at 0.685.

On to C12U G68C, for which the self-cleavage worked out at 1.01.

As for C12U U49A, the self-cleavage was 1.02.

As for A13U C33U, the self-cleavage is 0.894.

Turning to C12U U46G, the self-cleavage was found to be 1.

As for C12U C66U, the self-cleavage worked out at 0.798.

In the case of C12U C66G, the self-cleavage is 0.556.
